Measured values: publication PMC10864366, “Aggresome formation promotes ASK1/JNK signaling activation and stemness maintenance in ovarian cancer” (Nature Communications, 2024)

Molecular target: the molecule itself
Experiment: gel-shift assay (SDS-PAGE of heated and unheated protein, Coomassie stain); purified OTUD1 WT and Δ105–164 protein; heated (100 °C) and unheated samples separated by SDS-PAGE

B1: purified OTUD1 protein (WT), pET28a-mEGFP-OTUD1 (natural protein, UniProt Q5VV17 1-481, looked up)
chain: MQLYSSVCTHYPAGAPGPTAAAPAPPAAATPFKVSLQPPGAAGAAPEPETGECQPAAAAEHREAAAVPAAKMPAFSSCFEVVSGAAAPASAAAGPPGASCKPPLPPHYTSTAQITVRALGADRLLLHGPDPVPGAAGSAAAPRGRCLLLAPAPAAPVPPRRGSSAWLLEELLRPDCPEPAGLDATREGPDRNFRLSEHRQALAAAKHRGPAATPGSPDPGPGPWGEEHLAERGPRGWERGGDRCDAPGGDAARRPDPEAEAPPAGSIEAAPSSAAEPVIVSRSDPRDEKLALYLAEVEKQDKYLRQRNKYRFHIIPDGNCLYRAVSKTVYGDQSLHRELREQTVHYIADHLDHFSPLIEGDVGEFIIAAAQDGAWAGYPELLAMGQMLNVNIHLTTGGRLESPTVSTMIHYLGPEDSLRPSIWLSWLSNGHYDAVFDHSYPNPEYDNWCKQTQVQRKRDEELAKSMAISLSKMYIEQNACS
notes: OTUD1, wild type; also called purified native WT OTUD1 protein; source: pET28a-mEGFP-OTUD1 construct, purified
  binding result: binds
